Laboratory results reported in patent US6890720B1, “Antigens derived from filaggrin and their use for diagnosing rheumatoid polyarthritis” (Biomerieux, priority 1996, dated 2005).

Columns and labels:
[1] = tested on: AFAs of the sera from patients suffering from RA; experiment: Immunoblot of citrullinated and noncitrullinated fil-gst with individual sera and purified AFAs; assay type: binding, human; settings: citrullinated fil-gst; purified AFAs 4 μg/ml
Procedure: In a first series of experiments (FIG. 4a), the reactivity of noncitrullinated fil-gst (fil-gst alone, 30 minutes at 50° C.) and fil-gst citrullinated with PAD 30 minutes at 50° C. is compared with human sera composed of: • sera from normal persons: T(2) and T(3) • sera from patients suffering from RA having high AFA titers which are detected by immunotransfer on acido-neutral variants of human filaggrin, and by indirect immunofluorescence on cryosections of rat esophagus: RA(6) and RA(8); • anti-filaggrin antibodies purified from the serum from a patient suffering from RA by affinity chromatography, on a column grafted with acido-neutral isoforms of human filaggrin: AFA.
A positive control is also carried out with the monoclonal antibody AHF2.
In a second series of experiments (FIG. 4b), the reactivity of citrullinated fil-gst is confirmed with a largest series of sera: • 4 control sera: T(4) • 4 sera from patients suffering from RA not having AFAs detected by immunotransfer or by indirect immunofluorescence: RA(4) • 9 sera from patients suffering from RA with high AFA titers (three of them (*) were also tested in the first series of experiments): RA(9) • anti-filaggrin antibodies purified by affinity chromatography, on a column grafted with the acido-neutral isoforms of filaggrin, from a pool of sera from 40 patients suffering from RA: AFA • the monoclonal antibodies AHF (1-7). […]

[2] = tested on: serum from a patient suffering from RA; experiment: Dot-blot of peptides and fil-gst before and after PAD, serum from an RA patient; assay type: binding, human; settings: after citrullination (PAD 30 minutes at 50° C.); 0.5 μg antigen per deposit; serum 1/2000
Procedure: These 2 peptides, as well as fil-gst, were citrullinated by the action of PAD, for 30 minutes at 50° C., in the same reaction medium as that indicated in Example 2. The specific conditions for each peptide, and for the fil-gst are the following: • peptide S-47-S (SEQ ID NO:3): 4 mU/μmol arginine • peptide S-35-R (SEQ ID NO:4): 2.7 mU/μmol arginine • fil-gst as indicated in Example 2.
The reactivity of each peptide and that of fil-gst, before and after action of the enzyme, towards the monoclonal antibody AHF4, and the serum from a patient suffering from RA, is compared by dot-blot.
The operating conditions are the following: • 0.5 μg by deposition of each antigen (peptides, fil-gst, acido-neutral variants of filaggrin (AVF)) • nitrocellulose treatment 45 minutes at 80° C., before immunodetection • RA serum used at the dilution of 1/2000; monoclonal antibody AHF4 used at a concentration of 0.2 μg/ml

B1: citrullinated fil-gst: fil-gst deiminated in vitro by rabbit muscle peptidylarginine deiminase (protein)
chain: QSESAHGRTGTSTGGRQGSHHKQARDSSRHSTSQEGQDTIHGHPGSSSGGRQGSHYEQLVDRSGHSGSHHSHTTSQGRSDASHGHSGSRSASRQTRNDEQSGDGSRHSGSRHHEASSRADSSGHSQVGQGQSEGPRTSRNWGSSFSQDSDSQGHSEDSERWSGSASRNHHGSAQEQLRDGSRHPRSHQEDRAGHGHSADSSRQSGTRHTQTSSGGQAASSHEQARSSAGERHGSHHQQSADSSRHSGIGHGQASSAVRDSGHRGYSGSQASDNEGHSEDSDTQSVSAHGQAGSHQQSHQESARGRSGETSGHSGSFLYQVSTHE
modifications: non-natural residues; left off: a dimerising Fc or GST
notes: fil-gst deiminated in vitro by rabbit muscle peptidylarginine deiminase
[1]
  reactivity of antifilaggrin autoantibodies purified by affinity chromatography from RA sera: recognition of the fragments corresponding to lanes 1 to 5
[2]
  recognition by the serum from the patient suffering from RA: recognizes
